{"source": "paper PMC11742385", "about": "“Selection and Characterization of a DNA Aptamer Recognizing High Mobility Group Box 1 Protein (HMGB1) and Enhancing Its Pro-inflammatory Activity”", "binders": {"B1": {"name": "H-ap25 (structured_DNA)", "DNA": "GGACAAGAATCACCGCTCTGGGTTTGGCGTCGGGCCTGGCGAAAGGTGGTTGTGCGGAGAGAGCGTACAGGAGGCATACAG"}}, "key": {"rhHMGB1 A box": {"target": "T1, rhHMGB1 A box (Homo sapiens, UniProt P09429 9-79)", "T1 sequence": "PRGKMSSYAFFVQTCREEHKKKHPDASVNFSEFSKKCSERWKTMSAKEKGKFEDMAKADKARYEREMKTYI", "test": "microplate aptamer binding assay; dot blot; 1 mM Mg2+, 1 mM Ca2+; 5 nM aptamer (microplate); SHMCK: 20 mM Hepes, 120 mM NaCl, 5 mM KCl, 1 mM MgCl2, 1 mM CaCl2, pH 7.4, 37 C, 1 h; protein coated 2 pmol/well, 3% BSA block, PBST washes", "details": "protein: recombinant; tags: His tag implied (pET28a, Ni-NTA); predicted hairpin (9-50) and stem-loops (52-69) linked by a T"}, "rhHMGB2": {"target": "T2, rhHMGB2 (UniProt P26583 1-209)", "T2 sequence": "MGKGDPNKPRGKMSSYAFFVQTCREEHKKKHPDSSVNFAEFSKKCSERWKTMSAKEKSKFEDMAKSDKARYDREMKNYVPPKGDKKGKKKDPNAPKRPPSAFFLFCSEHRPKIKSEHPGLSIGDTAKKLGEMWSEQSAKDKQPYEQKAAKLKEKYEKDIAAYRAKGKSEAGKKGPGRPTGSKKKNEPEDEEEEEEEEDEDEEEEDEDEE", "test": "microplate aptamer binding assay; 1 mM Mg2+, 1 mM Ca2+; 5 nM aptamer; SHMCK: 20 mM Hepes, 120 mM NaCl, 5 mM KCl, 1 mM MgCl2, 1 mM CaCl2, pH 7.4, 37 C, 1 h; protein coated 2 pmol/well, 3% BSA block, PBST washes", "details": "protein: commercial; predicted hairpin (9-50) and stem-loops (52-69) linked by a T"}, "rhHMGB1": {"target": "rhHMGB1 (Homo sapiens, UniProt P09429 1-215)", "sequence (P09429 whole entry)": "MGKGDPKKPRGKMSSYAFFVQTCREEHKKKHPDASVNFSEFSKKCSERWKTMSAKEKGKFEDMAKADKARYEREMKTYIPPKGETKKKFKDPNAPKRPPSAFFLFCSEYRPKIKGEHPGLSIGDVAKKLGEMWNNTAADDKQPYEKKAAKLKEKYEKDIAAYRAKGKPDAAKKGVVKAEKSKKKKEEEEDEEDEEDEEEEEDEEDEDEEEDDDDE", "test": "microplate aptamer binding assay (streptavidin-HRP); 1 mM Mg2+, 1 mM Ca2+; SHMCK: 20 mM Hepes, 120 mM NaCl, 5 mM KCl, 1 mM MgCl2, 1 mM CaCl2, pH 7.4, 37 C, 1 h; protein coated 2 pmol/well, 3% BSA block, PBST washes", "details": "protein: recombinant; tags: His tag implied (pET28a, Ni-NTA); predicted hairpin (9-50) and stem-loops (52-69) linked by a T"}}, "data": [{"binder": "B1", "values": [{"measurement": "binding result", "setting": "rhHMGB1 A box", "value": "no binding"}, {"measurement": "binding result", "setting": "rhHMGB2", "value": "no binding"}, {"measurement": "Kd", "setting": "rhHMGB1", "value": "8.2 ± 0.53", "unit": "nM"}]}]}
